Laboratory results as given in article PMC10319874 (Scientific Reports, 2023).

Key:
[1] = molecular target: histidine-tagged monomeric RgpA (rRgpAH) (Porphyromonas gingivalis W50, UniProt P28784 228-658); experiment: […], Tris buffer (50 mM Tris, 150 mM NaCl, 5 mM CaCl2, pH 8.0) […]; details: both partners purified
RgpB = RgpB (Porphyromonas gingivalis, UniProt P95493 230-736); experiment: as above; details: both partners purified
RgpB, sequence (P95493 230-736): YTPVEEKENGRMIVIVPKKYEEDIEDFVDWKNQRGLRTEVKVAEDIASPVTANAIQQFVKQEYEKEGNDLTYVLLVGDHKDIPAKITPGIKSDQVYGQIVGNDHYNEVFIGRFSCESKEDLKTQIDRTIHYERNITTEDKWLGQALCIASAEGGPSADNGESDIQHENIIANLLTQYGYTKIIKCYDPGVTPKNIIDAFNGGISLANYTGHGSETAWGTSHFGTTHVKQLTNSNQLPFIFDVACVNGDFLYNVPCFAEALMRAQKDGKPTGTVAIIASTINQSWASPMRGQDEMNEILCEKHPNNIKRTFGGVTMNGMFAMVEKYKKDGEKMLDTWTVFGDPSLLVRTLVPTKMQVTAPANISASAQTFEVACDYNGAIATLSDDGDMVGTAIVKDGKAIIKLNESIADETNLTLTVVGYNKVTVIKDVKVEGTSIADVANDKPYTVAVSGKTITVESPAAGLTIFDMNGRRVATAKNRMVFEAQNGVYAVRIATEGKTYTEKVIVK

histidine-tagged monomeric RgpA (rRgpAH), sequence (P28784 228-658, tags or fused parts left off): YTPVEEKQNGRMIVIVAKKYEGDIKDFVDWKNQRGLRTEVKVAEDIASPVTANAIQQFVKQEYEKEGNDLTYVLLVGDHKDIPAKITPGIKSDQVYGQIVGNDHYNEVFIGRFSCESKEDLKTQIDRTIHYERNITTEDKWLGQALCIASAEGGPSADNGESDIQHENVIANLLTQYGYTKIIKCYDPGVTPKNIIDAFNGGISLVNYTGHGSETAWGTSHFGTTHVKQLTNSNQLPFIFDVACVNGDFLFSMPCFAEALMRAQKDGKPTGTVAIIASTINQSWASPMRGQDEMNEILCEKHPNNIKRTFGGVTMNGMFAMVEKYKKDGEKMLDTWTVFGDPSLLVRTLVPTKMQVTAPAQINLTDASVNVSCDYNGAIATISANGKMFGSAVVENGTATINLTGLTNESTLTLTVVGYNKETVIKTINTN

Binder | Ki [1] [nM] | Ki (RgpB) [nM]
recombinant RgpB propeptide (rRgpB-PP) (domain or fragment) QPAERGRNPQVRLLSAEQSMSKVQFRMDNLQFTGVQTSKGVAQVPTFTEGVNISEKGTPILPILSRSLAVSETRAMKVEVVSSKFIEKKDVLIAPSKGVISRAENPDQIPYVYGQSYNEDKFFPGEIATLSDPFILRDVRGQVVNFAPLQYNPVTKTLRIYTEIVVAVSETAEAGQNTISLVKNSTFTGFEDIYKSVFMNYEATR | 22 | 29
recombinant RgpA propeptide (rRgpA-PP) (domain or fragment) QQTELGRNPNVRLLESTQQSVTKVQFRMDNLKFTEVQTPKGMAQVPTYTEGVNLSEKGMPTLPILSRSLAVSDTREMKVEVVSSKFIEKKNVLIAPSKGMIMRNEDPKKIPYVYGKSYSQNKFFPGEIATLDDPFILRDVRGQVVNFAPLQYNPVTKTLRIYTEITVAVSETSEQGKNILNKKGTFAGFEDTYKRMFMNYEPGR | 13 | 15
